Measurements as given in the RNAGym collection of RNA variant scans (doi:10.1073/pnas.2313332121).
Variants at the floor of the assay were thinned out.

B1: TPR 5TU (parent)
chain: GGAUCUUCUCGAUCUAACAAAAAAGACAAAUCUGCCACAAAGCUUGAGAGCAUCUUCGGAUGCAGAGGCGGCAGCCUUCGGUGGCGCGAUAGCGCCAACGUUCUCAACUAUGACACGCAAAACGCGUGCUCCGUUGAAUGGAGUUUAUCAUG

Variants of: B1
Test: polymerase ribozyme fitness, log enrichment relative to wild type (log ratio); higher = more active; in vitro selection for triplet polymerase activity
How it was run: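 PCR was used to build mutant libraries for each subunit of a heterodimeric triplet polymerase ribozyme, which were then transcribed. A single in vitro selection round, in triplicate, used a frozen incubation at −7 °C and recovered extended constructs by gel excision, streptavidin beads and RT-PCR. Fitness is the logarithm of genotype enrichment relative to wild-type enrichment, averaged over replicates with inverse-variance weights. The logarithm is base 2, and after Illumina sequencing only genotypes with ≥10 input reads and ≥1 read per output were kept.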

Variant	polymerase ribozyme fitness (log ratio)
GGAUCUUCUCGAUCUAACAAAAAAGACAAAUCUGCCACAAAGCUUGAGAGCAUCUUCGGAUGCAGAGGCGGCAGCCUUCGGUGGCGCGAUAGGGCCACCGUUCUCAACUAUGACACGCAAAACGCGUGCUCCGUUGAAUGGACUUUAUCAUG [C93G A98C G143C]	-4.05
GGAUCUUCUCGAUCUAACAAAAAAGACAAAUCUGCCACAAAGCGUGAGAGCAUCUUCGGUUGCAGAGGCGGCAGCCUUCGGUGGCGCGAUAGCGCCAACGUUCUCAACUAUGACCCGCAAAACGCGUGCUCCGUUGAAUGGAGUUUAUCAUG [U44G A60U A115C]	≤ -4.2
GGAUCUUCUCGAUCUAACAAAAAAGACAAAUCUGCCACAAAGCUUGAGAGCAUCUACGGAUGCAGAGGCGGCAGCCUUCGGUGGCGCGGUAGCGCCAACGUUCUCAACUAUGACACGCAAAACGCGUGCUCCGUUGAAUGGAGUUUAUCAUG [U56A A89G]	-2.69
GGAUCUUCUCGAUCUAACAAAAAAGACAAAUCUGCCACAAGGCUUGAGAGCAUCUACGGAUGCAGAGGCGGCAGCCUUUGGGGGUGCGAUAGCGCCAACGUUCUCAACUAUGACACGCAAAGCGCGUGAUCCGUUUAAUGGAGUUUAUCAUG [A41G U56A C79U U82G C85U A122G C129A G136U]	≤ -4.2
GGAUCUUCUCGAUCUAACAAAAAAGACAAAUCUGCCACCAAGCUUGAGAGCAUCUUCGGAUGCAGAGGCGGCAGCCUUCGGUGGCGCGAUAGCACCAACGUUCUCAACUAUGACACGCAAAACGCGUGCUCCGUUGAAUGGAGUUUAUCAUG [A39C G94A]	-2.88
GGAUCUUCUCGAUCUAACAAAAAAGACAAAUCUGCCACAAAGCUUGAGCGCAUCGUCGGAUGCAGAGGCGGCAGCUUUCGGUGGCGAGAUAGCGCCAAUGUUCUUAACUAUGACACGCAUAACGCGUGCUCCGUUGAAUGGAGUUUAUCAUG [A49C U55G C76U C87A C99U C105U A120U]	≤ -4.2
GGUUCUUCUCGAUCUAACAAAAAAGACAAAUCUGCCACAAAGCUUGAGAGCAUCUUCGGAUGCAGAGGCGGCAGCCUUCGGUGGCGCGAUAGCGCCAACGUUCUCAACUAUGACACGCAAAACGCGUGCUCCUUGGAAUGGAGUUUAUCAUG [A3U G133U U135G]	≤ -4.2
GGAUCUUCUCGAUCUAACAAAAAAGACAAAUCUGCCACAAAGCUUGAGAGCAUCUUGGGAUGCAGAGGCGGCAGCCUUCGGUGGCGCGAUAGAGCCAACGUUCUCAACUAUGACACGCAAAACGCGUGCUCCGUUGAAUGGAGUUUAUCAUG [C57G C93A]	-2.2
GGAUCUUCUCGAUCUAACAAAAAAGACAAAUCUGCUACAAAGCUUGAGAGCUUCUUCGGAUGCAGAGGCGGCAGCCUUCGGUGGCGCGAUAGCGCCAACGUUCUCAACUAUGACACGCAAAACGCGUGCUCCGUUGAAUGGAGUUUAUCAUG [C36U A52U]	-1.56
GGAUAUUCUCGAUCUUACAAAAAAGACAAAUCUGCCACAAAGCUUGAGAGCAUCUUCGUAUGCAGAGGCGGCAGCCUUCGGUGGCGCGAUAGCGCCAACGUUCUCAACUAUGACACGCAAAACGCGUGCUCCGUUGAAUGGAGUUUAUCAUG [C5A A16U G59U]	-1.5
GGAUCUUCUCGAUCUAACCAAAAAGACAAAUCUGCCACAAAGCUUGAGAGCAUCUUCGGAUGCAGAGGCGGCAGCCUUCGGUGGCGCGAUAGCCCCAACGUGCUCAACUAUGACACGCAAAACGCGUGCUCCGUUGAAUGGAGUUUAUCAUG [A19C G94C U102G]	≤ -4.2
GGAUCUUCUCGAUCUAACAAAAAAGACAAAUCUGCCACAAAGCUUGAGAACAUCUUCGGAUGCAGAGGCGGCAGCCUUCGGUGGCGCGAUAGCGCCAACGUUCUCAACUAUGACAAGCAAAACGCGUGCUCCGUUGAAUGGAGUUUAUCAUG [G50A C116A]	-0.537
GGAUCUUCUCGAUCCAACAAAAAAGACAAAUCUGCCACAAAGCUUGAGAGCAUCUACGGAUGCAGAGGCGGCAGCCUUAUGUGGCGCGAUAGCGCUAACGUUAUCACCUAUGACACGCAAAACGCGUGCUCCGUUGAAUGGAGUUAAUCAUG [U15C U56A C79A G80U C96U C103A A107C U146A]	≤ -4.2
GGAUCUUCUCGAUCUAACAAAAAAGACAAAUCUGCCACAAAGCUUGAGAGCAUCUUCGGAUGCAGAGGCGGCAGCCUUCGGUGGCGGGAUCGCGCCAACGUUCUCAACUAUGACACGCAAAACGCGGGCUCCGUUGAAUGGUGUUUAUCAUG [C87G A91C U127G A142U]	≤ -4.2
GGAUCUUCUCGAUCUAACAACAAAGACAAAUCUGCCACAAAGCUUGAGAGCAUCUUCGGAGGCAGAGGCGGCAGCCUUCGGUGGUGCGAUAGCGCCAACGUUCUCAACUAUGACACGCAAAACGCGUGCUCCGUUGAAUGGAGUUUAUCAUG [A21C U61G C85U]	0.133
GGAUCUUCUCGAUCUAACAAAAAAGACAAAUCUGCCACAAAGCUUGAGAGCAUCUUCGCAUGCAGAGGUGGCAGCCUUCGGUGGCGCGAUAGGGCCAACAUUCUCAACUAUGACACGCAAAACUCGUGCUCCGUUGAAUGGAGUUUAUCAUG [G59C C69U C93G G100A G124U]	≤ -4.2
GGAUCUUCUCGAUCUAACAAAAAAGACCAAUCGGCCACAAAGCUUGAGAGCAUCUUCGGAUGCAGAGGCGGCAGCCCUCGGUGGCGCGAGAGAGCCAACGUUCUCAACUAUGACACGCAAAACGCGUGCUCCGUUGAAUGGAGUUUACCAUA [A28C U33G U77C U90G C93A U148C G152A]	≤ -4.2
GGAUCUUCUCGAUCUAACAAAAAAGACAAAUCUGCCACAAAGCUUGUGAGCAUCUUCGGAUGCAGAGGCUGCAGCCUUCGGUGGCGCGAUAGCGCCAACGUUCUCAACUAUGACACGCAAAGCGCGUGCUCCGUUGAAUGGAGUUUAUCAUG [A47U G70U A122G]	-3.45
GGAUCUUCUCGAUCUAACAAAAAAGACAAAUCUGCCACAAAGCUUGAGAGCAUCUUCGGAUGCAGAGGCGGCAGCCUUCGGUGGCUCAAUAGCGCCAACGUUCUCAACUAUGACACGCAAAACGCGUGCUCCGUUGAAUGGAGUUUAUCAUG [G86U G88A]	≤ -4.2
